In experiment [1] the target is DKK1 (Homo sapiens) (UniProt O94907). Description: SPR. Conditions: cited from earlier work.
For experiment [2], the target named is T1, recombinant human LRP-6 Fc Chimera Protein (R&D, 1505-LR-025) (human, UniProt O75581 20-1370).
T1 construct: human LRP6 part of a commercial Fc chimera; also called LRP6 (1505-LR-025); source: bought: R&D
T1 sequence (looked up): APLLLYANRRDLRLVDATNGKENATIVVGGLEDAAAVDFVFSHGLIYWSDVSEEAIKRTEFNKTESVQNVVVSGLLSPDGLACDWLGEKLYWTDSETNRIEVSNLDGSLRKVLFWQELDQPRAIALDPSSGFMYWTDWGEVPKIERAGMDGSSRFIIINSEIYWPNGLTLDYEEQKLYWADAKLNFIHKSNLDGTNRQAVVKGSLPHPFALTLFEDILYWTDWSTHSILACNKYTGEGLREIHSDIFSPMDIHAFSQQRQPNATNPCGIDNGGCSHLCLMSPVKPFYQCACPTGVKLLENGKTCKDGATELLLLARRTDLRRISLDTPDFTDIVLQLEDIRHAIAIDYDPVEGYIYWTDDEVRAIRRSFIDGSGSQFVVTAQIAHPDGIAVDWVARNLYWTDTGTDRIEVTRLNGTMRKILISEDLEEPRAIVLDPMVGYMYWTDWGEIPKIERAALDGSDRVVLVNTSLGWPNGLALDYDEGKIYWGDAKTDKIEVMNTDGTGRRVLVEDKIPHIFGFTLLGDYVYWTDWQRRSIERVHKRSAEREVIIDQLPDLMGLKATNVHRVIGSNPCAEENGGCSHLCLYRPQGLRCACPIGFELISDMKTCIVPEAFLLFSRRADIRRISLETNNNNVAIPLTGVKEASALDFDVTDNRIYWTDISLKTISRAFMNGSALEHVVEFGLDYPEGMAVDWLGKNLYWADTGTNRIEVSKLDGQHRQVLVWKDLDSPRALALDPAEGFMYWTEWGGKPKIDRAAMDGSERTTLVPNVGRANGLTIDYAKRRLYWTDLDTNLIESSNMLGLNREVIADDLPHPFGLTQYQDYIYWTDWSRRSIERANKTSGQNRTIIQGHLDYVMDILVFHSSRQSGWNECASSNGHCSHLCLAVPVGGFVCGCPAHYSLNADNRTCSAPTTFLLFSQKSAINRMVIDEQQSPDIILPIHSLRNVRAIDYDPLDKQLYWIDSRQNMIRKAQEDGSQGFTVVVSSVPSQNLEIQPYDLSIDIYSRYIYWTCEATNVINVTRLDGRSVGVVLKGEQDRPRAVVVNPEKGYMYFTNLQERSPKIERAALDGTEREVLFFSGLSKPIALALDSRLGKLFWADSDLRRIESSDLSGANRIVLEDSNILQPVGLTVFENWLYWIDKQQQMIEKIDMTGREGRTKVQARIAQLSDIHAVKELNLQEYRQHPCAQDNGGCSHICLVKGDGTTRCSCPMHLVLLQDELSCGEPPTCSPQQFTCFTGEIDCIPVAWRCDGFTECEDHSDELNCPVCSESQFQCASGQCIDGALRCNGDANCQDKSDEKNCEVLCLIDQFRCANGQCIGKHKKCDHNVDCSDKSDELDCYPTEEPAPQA
The experiment can be described thus: ELISA; titration ELISA; 5 ug/ml LRP-6 Fc immobilised on the plate at 4 °C for 12 h, blocked with 5% BSA in PBS; VSTM2A His-tag serial dilution (start 100 ug/ml, factor 4) for 2 h at room temperature, in duplicate; interaction fixed by DTSSP; pNPP read at OD405. The settings on record: both partners purified. In general terms: In an ELISA, binding on a coated surface is turned into a signal by an enzyme label.

DKK1 (Homo sapiens), sequence (O94907 32-266): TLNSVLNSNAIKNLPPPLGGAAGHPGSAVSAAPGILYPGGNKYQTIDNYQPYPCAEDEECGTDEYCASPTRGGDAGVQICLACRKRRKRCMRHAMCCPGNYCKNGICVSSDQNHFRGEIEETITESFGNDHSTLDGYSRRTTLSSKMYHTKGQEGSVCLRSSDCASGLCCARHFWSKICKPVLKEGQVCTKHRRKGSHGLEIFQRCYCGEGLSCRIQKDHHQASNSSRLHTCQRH

A word on the Kd: it is the free concentration of one partner at which half of the binding sites on the other are occupied at equilibrium, for simple one-to-one binding. Take LRP6 (from UniProt O75581): the Kd in experiment [1] is 0.6 nM.

B1: Recombinant Human VSTM2A His-tag Protein (R&D, 10037-VT) (ligand, UniProt Q8TAG5 25-236, looked up)
chain: SQAKFTEFPRNVTATEGQNVEMSCAFQSGSASVYLEIQWWFLRGPEDLDPGAEGAGAQVELLPDRDPDSDGTKISTVKVQGNDISHKLQISKVRKKDEGLYECRVTDANYGELQEHKAQAYLKVNANSHARRMQAFEASPMWLQDMKPRKNVSAAIPSSIHGSANQRTHSTSSPQVVAKIPKQSPQSGARIATSHGLSVLLLVCGFVKGALL
notes: human VSTM2A, commercial recombinant protein; also called recombinant VSTM2A; VSTM2A pure protein; source: bought: R&D
With B1, the Kd in experiment [2] is 9.19 nM.

The values above are taken from PMC6771244, “VSTM2A suppresses colorectal cancer and antagonizes Wnt signaling receptor LRP6” (Theranostics, 2019).
